Reference: the Immune Epitope Database (IEDB)

What was measured:
HLA-B*18:01 = assay: IEDB peptide-MHC binding, purified MHC/competitive/fluorescence; filed as Kd, often an IC50 or EC50 that approximates it; ≥ and ≤ were set here for values at or beyond the usual limits of such assays
HLA-B*57:01 [1] = assay: as above
HLA-A*69:01 [2] = assay: as above
HLA-B*27:03 = assay: as above
HLA-A*26:01 = assay: as above
HLA-A*02:01 [3] = assay: as above
HLA-B*39:01 = assay: as above
HLA-B*51:01 = assay: as above
HLA-B*46:01 = assay: as above
HLA-B*15:17 = assay: as above
HLA-B*08:01 [4] = assay: IEDB peptide-MHC binding, purified MHC/competitive/fluorescence; ≥ and ≤ were set here for values at or beyond the usual limits of such assays
HLA-A*24:02 = assay: as above
HLA-B*15:01 [5] = assay: as above
HLA-A*03:01 [6] = assay: IEDB peptide-MHC binding, purified MHC/direct/fluorescence; filed as Kd, often an IC50 or EC50 that approximates it; ≥ and ≤ were set here for values at or beyond the usual limits of such assays; details: source organism: Zaire ebolavirus
HLA-A*02:03 [7] = assay: as above; details: source organism: Zaire ebolavirus
HLA-A*02:12 [8] = assay: as above; details: source organism: Zaire ebolavirus
HLA-A*02:19 [9] = assay: as above; details: source organism: Zaire ebolavirus
HLA-B*15:01 [10] = assay: as above
HLA-A*68:02 [11] = assay: as above; details: source organism: Zaire ebolavirus
HLA-A*29:02 = assay: as above; details: source organism: Zaire ebolavirus
HLA-A*24:03 = assay: as above
HLA-A*02:11 [12] = assay: as above; details: source organism: Zaire ebolavirus
HLA-A*02:16 = assay: as above; details: source organism: Zaire ebolavirus
HLA-A*02:01 [13] = assay: IEDB peptide-MHC binding, purified MHC/competitive/fluorescence; ≥ and ≤ were set here for values at or beyond the usual limits of such assays
HLA-A*02:03 [14] = assay: IEDB peptide-MHC binding, purified MHC/competitive/fluorescence; filed as Kd, often an IC50 or EC50 that approximates it; ≥ and ≤ were set here for values at or beyond the usual limits of such assays
HLA-A*02:19 [15] = assay: as above
HLA-A*02:06 = assay: as above
HLA-A*02:11 [16] = assay: as above
HLA-C*14:02 = assay: IEDB peptide-MHC binding, purified MHC/direct/fluorescence; filed as Kd, often an IC50 or EC50 that approximates it; ≥ and ≤ were set here for values at or beyond the usual limits of such assays; details: source organism: Vibrio vulnificus YJ016
HLA-A*03:01 [17] = assay: IEDB peptide-MHC binding, purified MHC/competitive/fluorescence; filed as Kd, often an IC50 or EC50 that approximates it; ≥ and ≤ were set here for values at or beyond the usual limits of such assays; details: source organism: Yersinia pestis Nepal516
HLA-A*02:12 [18] = assay: as above; details: source organism: Yersinia pestis Nepal516
HLA-B*15:01 [19] = assay: as above; details: source organism: Yersinia pestis Nepal516
HLA-A*26:02 = assay: as above; details: source organism: Taterapox virus
HLA-A*68:02 [20] = assay: as above; details: source organism: Taterapox virus
HLA-A*11:01 = assay: as above; details: source organism: Taterapox virus
HLA-B*07:02 = assay: IEDB peptide-MHC binding, purified MHC/direct/fluorescence; filed as Kd, often an IC50 or EC50 that approximates it; ≥ and ≤ were set here for values at or beyond the usual limits of such assays; details: source organism: Camelpox virus M-96
HLA-B*08:01 [21] = assay: as above; details: source organism: Variola virus
HLA-B*08:02 = assay: as above; details: source organism: Variola virus
HLA-B*57:01 [22] = assay: as above; details: source organism: Camelpox virus M-96
HLA-B*58:01 = assay: as above; details: source organism: Camelpox virus M-96
HLA-A*69:01 [23] = assay: as above; details: source organism: Camelpox virus M-96
HLA-A*01:01 = assay: as above; details: source organism: Camelpox virus M-96
HLA-A*02:01 [24] = assay: as above; details: source organism: Camelpox virus M-96
HLA-A*31:01 = assay: as above; details: source organism: Camelpox virus M-96
[25] = source organism: Zaire ebolavirus
[26] = source organism: Human immunodeficiency virus 1
[27] = source organism: Vibrio vulnificus YJ016
[28] = source organism: Yersinia pestis Nepal516
[29] = source organism: Taterapox virus
[30] = source organism: Camelpox virus M-96
[31] = source organism: Sudan ebolavirus

## HQKKNEISF
HLA-B*18:01; [25]
  Kd: ≥ 20 µM
HLA-B*57:01 [1]; [25]
  Kd: ≥ 20 µM
HLA-A*69:01 [2]; [25]
  Kd: ≥ 20 µM
HLA-B*27:03; [25]
  Kd: ≥ 20 µM
HLA-A*26:01; [25]
  Kd: ≥ 20 µM
HLA-A*02:01 [3]; [25]
  Kd: ≥ 20 µM
HLA-B*39:01; [25]
  Kd: ≥ 20 µM
HLA-B*51:01; [25]
  Kd: ≥ 20 µM
HLA-B*46:01; [25]
  Kd: ≥ 20 µM
HLA-B*15:17; [25]
  Kd: ≥ 20 µM
HLA-B*08:01 [4]; [25]
  IC50: 42.2 µM
HLA-A*24:02; [25]
  IC50: ≥ 116 µM
HLA-B*15:01 [5]; [25]
  IC50: 6.66 µM
HLA-A*03:01 [6]
  Kd: ≥ 20 µM
HLA-A*02:03 [7]
  Kd: ≥ 20 µM
HLA-A*02:12 [8]
  Kd: ≥ 20 µM
HLA-A*02:19 [9]
  Kd: ≥ 20 µM
HLA-B*15:01 [10]; [25]
  Kd: 0.233 µM
HLA-A*68:02 [11]
  Kd: ≥ 20 µM
HLA-A*29:02
  Kd: ≥ 20 µM
HLA-A*24:03; [25]
  Kd: ≥ 20 µM
HLA-A*02:11 [12]
  Kd: ≥ 20 µM
HLA-A*02:16
  Kd: ≥ 20 µM

## HSQGREAAV
HLA-B*08:01 [4]; [25]
  IC50: ≥ 172 µM
HLA-A*02:01 [13]; [25]
  IC50: ≥ 254 µM

## MMKDEPVVF
HLA-B*08:01 [4]; [25]
  IC50: ≥ 205 µM
HLA-A*24:02; [25]
  IC50: 0.218 µM
HLA-B*15:01 [5]; [25]
  IC50: 8.81 µM
HLA-A*02:01 [13]; [25]
  IC50: ≥ 116 µM

## NFLIKFLLI
HLA-B*08:01 [4]; [25]
  IC50: ≥ 1610 µM
HLA-A*24:02; [25]
  IC50: 0.0094 µM
HLA-A*02:01 [13]; [25]
  IC50: ≥ 614 µM

## NTVATLYCV
HLA-A*02:03 [14]; [26]
  Kd: 0.0135 µM
HLA-A*02:19 [15]; [26]
  Kd: 0.0107 µM
HLA-A*02:06; [26]
  Kd: ≤ 0.0001 µM
HLA-A*69:01 [2]; [26]
  Kd: ≤ 0.001 µM
HLA-A*02:01 [3]; [26]
  Kd: 0.215 µM
HLA-A*02:11 [16]; [26]
  Kd: 0.0007 µM

## RQIQGIAAF
HLA-A*02:06; [27]
  Kd: 0.0133 µM
HLA-A*02:01 [3]; [27]
  Kd: 1.65 µM
HLA-C*14:02
  Kd: 2.62 µM

## SMLCWLGMT
HLA-A*03:01 [17]
  Kd: ≥ 20 µM
HLA-A*02:03 [14]; [28]
  Kd: ≥ 20 µM
HLA-B*18:01; [28]
  Kd: ≥ 20 µM
HLA-A*02:12 [18]
  Kd: 0.577 µM
HLA-B*57:01 [1]; [28]
  Kd: ≥ 20 µM
HLA-A*02:19 [15]; [28]
  Kd: ≥ 20 µM
HLA-B*15:01 [19]
  Kd: ≥ 20 µM
HLA-B*27:03; [28]
  Kd: ≥ 20 µM
HLA-A*26:01; [28]
  Kd: ≥ 20 µM
HLA-B*39:01; [28]
  Kd: ≥ 20 µM
HLA-B*51:01; [28]
  Kd: ≥ 20 µM
HLA-A*02:11 [16]; [28]
  Kd: 0.0512 µM
HLA-B*46:01; [28]
  Kd: ≥ 20 µM

## SYVFNFHKY
HLA-A*26:02
  Kd: 4.09 µM
HLA-B*18:01; [29]
  Kd: ≥ 20 µM
HLA-A*68:02 [20]
  Kd: ≥ 20 µM
HLA-A*11:01
  Kd: 2.55 µM
HLA-B*15:17; [29]
  Kd: ≥ 20 µM
HLA-B*07:02
  Kd: ≥ 20 µM
HLA-B*08:01 [21]
  Kd: ≥ 20 µM
HLA-B*08:02
  Kd: ≥ 20 µM
HLA-B*57:01 [22]
  Kd: ≥ 20 µM
HLA-B*15:01 [10]; [30]
  Kd: ≥ 20 µM
HLA-B*58:01
  Kd: ≥ 20 µM
HLA-A*69:01 [23]
  Kd: ≥ 20 µM
HLA-A*01:01
  Kd: ≥ 20 µM
HLA-A*02:01 [24]
  Kd: ≥ 20 µM
HLA-A*24:03; [30]
  Kd: 0.055 µM
HLA-A*31:01
  Kd: ≥ 20 µM

## TVIYRGVNF
HLA-B*08:01 [4]; [31]
  IC50: ≥ 88 µM
HLA-A*24:02; [31]
  IC50: 3.58 µM
HLA-B*15:01 [5]; [31]
  IC50: 28.3 µM
HLA-A*02:01 [13]; [31]
  IC50: ≥ 790 µM
